Article PMC3542269

Biological target: clathrin (human (endogenous in PC-3)) (UniProt Q00610)
Test: co-IP; PC-3 lysate (50 mM HEPES pH 5.5, 1 mM EDTA, 150 mM NaCl, 1% Triton X-100); anti-clathrin (1 µg) or anti β-actin (5 µg) antibody overnight at 4°C, Protein A Sepharose; profilin 1 detected by Western blot; cells treated 24 h with 10 µM AMS-36 (cathepsin X inhibitor) or DMSO

Sequence of profilin 1 (P07737 whole entry): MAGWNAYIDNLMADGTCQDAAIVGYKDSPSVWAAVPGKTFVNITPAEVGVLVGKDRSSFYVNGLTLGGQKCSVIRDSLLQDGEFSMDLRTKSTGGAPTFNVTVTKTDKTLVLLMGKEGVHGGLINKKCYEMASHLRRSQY
Sequence of UniProt Q00610 (Q00610 whole entry): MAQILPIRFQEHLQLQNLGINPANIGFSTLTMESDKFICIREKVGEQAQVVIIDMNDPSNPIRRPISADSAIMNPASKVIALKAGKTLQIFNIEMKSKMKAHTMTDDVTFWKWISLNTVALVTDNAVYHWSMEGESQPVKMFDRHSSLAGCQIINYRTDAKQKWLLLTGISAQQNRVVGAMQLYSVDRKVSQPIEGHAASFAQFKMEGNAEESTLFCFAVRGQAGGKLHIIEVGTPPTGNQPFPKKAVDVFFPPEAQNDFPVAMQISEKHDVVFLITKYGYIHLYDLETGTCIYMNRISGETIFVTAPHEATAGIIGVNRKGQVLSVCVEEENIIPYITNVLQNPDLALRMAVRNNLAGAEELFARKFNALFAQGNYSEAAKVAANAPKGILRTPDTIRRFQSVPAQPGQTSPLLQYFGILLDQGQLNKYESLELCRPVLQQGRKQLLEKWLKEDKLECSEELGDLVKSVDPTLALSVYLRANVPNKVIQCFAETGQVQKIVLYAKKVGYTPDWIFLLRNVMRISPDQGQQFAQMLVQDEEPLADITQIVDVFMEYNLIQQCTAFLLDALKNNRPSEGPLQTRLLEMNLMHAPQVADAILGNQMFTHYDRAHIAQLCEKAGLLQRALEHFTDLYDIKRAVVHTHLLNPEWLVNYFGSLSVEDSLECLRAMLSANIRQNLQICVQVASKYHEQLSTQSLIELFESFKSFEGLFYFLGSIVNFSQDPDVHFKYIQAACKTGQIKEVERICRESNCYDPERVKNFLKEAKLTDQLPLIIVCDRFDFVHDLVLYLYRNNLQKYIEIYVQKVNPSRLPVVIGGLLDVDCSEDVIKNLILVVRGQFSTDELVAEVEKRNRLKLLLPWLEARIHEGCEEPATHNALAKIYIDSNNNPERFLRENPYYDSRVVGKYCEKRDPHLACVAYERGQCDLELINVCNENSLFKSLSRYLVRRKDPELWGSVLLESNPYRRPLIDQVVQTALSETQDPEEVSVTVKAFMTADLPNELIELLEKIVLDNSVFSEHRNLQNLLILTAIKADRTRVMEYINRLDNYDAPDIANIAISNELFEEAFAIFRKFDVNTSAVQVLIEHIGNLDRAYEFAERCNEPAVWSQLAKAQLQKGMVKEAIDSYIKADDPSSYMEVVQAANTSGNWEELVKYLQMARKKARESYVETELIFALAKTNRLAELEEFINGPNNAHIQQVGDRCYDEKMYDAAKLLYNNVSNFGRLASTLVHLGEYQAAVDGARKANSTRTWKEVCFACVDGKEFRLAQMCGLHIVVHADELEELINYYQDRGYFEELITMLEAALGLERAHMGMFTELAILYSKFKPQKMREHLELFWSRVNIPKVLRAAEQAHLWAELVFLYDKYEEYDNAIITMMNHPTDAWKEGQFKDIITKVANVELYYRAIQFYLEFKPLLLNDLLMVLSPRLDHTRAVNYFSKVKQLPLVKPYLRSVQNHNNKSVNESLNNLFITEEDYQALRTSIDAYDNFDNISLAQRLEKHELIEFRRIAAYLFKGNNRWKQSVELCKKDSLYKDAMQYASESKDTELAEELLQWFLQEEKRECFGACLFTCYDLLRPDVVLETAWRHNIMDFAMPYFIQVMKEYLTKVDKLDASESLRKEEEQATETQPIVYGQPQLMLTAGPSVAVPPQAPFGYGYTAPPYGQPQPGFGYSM

profilin 1 (from UniProt P07737 1-140) (natural protein)
more profilin 1 co-precipitated with clathrin from AMS-36-treated than from DMSO-treated cells: 44%
